Literature values as cited in patent US20220017621A1, “Combination Therapy for Cancer” (Merck Patent GmbH, priority 2016, published 2022).

Target: TGFβ1 (Homo sapiens, UniProt P01137)
Conditions: binding of TGFβ1

Sequence of TGFβ1 (P01137 279-390 limits assumed, species assumed): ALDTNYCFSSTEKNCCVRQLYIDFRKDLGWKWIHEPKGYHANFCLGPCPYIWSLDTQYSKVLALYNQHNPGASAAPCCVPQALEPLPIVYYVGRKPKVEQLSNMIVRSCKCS

Kd: 0.2 nM
B1: recombinant soluble TGFβRII: recombinant soluble extracellular domain of TGFβRII, from the literature (Lin et al.) (protein, UniProt P37173 23-166, looked up)
extracellular domain: TIPPHVQKSVNNDMIVTDNNGAVKFPQLCKFCDVRFSTCDNQKSCMSNCSITSICEKPQEVCVAVWRKNDENITLETVCHDPKLPYHDFILEDAASPKCIMKEKKKPGETFFMCSCSSDECNDNIIFSEEYNTSNPDLLLVIFQ
modifications: extracellular domain
